# Measurements reported in PMC7134557.
# B1: BaMV helicase-like domain (of BaMV replicase) (Bamboo mosaic virus) (protein)
# chain: YSPDIERAAAFARDVMSNKTGAILPKQSHEWKTTLKRKCKLAPRQTLISVIHGAGGSGKSRALQEYMRNNKEDPIVTILPTNELRADWKAKLPAHDPDMFMTFENALLIPKGNVVIMDDYTKLPRGYIEAYVQNSPMLDLLILTGDPRQSEHFESAEGNTINDLSPSPVVFSAYARYYINATHRNNQDLANALGVYSEKQGKTRISVSNHIEDGRHTLVPSQIKQRNYVSMGRKTSTYAGCQGITASRVQVIIDNDTAKCSHQVLYTAFSRAADEIHFCNTMTDEKQFWAKVKCTPYLQAILNLTKEHSLPDP
# Substrate: Nc1ncnc2c1ncn2[C@@H]1O[C@H](COP(=O)(O)OP(=O)(O)OP(=O)(O)O)[C@@H](O)[C@H]1O
# Experiment: purified protein
protein,measurement,value
B1,Km,148 ± 5 µM
same,kcat,82 s⁻¹
